Columns and labels:
[1] = system: HeLa Kyoto; experiment: solubility in G1/S (NP-40 vs SDS abundance) (log2 ratio); higher = more soluble; details: cell cycle stage: G1/S
[2] = system: HeLa Kyoto; experiment: solubility change mitosis vs G1/S (difference of NP-40 vs SDS log2 ratios) (log2 ratio difference); higher = more soluble in mitosis
[3] = system: HeLa Kyoto; experiment: thermal stability score vs G1/S (z-score of summed log2 fold changes over temperatures); higher = more thermally stable than in G1/S
[4] = cell cycle stage: early G1 (4.5 h after nocodazole release)
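Wherever solubility change mitosis vs G1/S (difference of NP-40 vs SDS log2 ratios) is given: synchronized HeLa Kyoto cells (double thymidine block for G1/S, nocodazole release for mitosis), protein amounts in NP-40 versus SDS lysates quantified by mass spectrometry, three biological replicates.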
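Wherever solubility in G1/S (NP-40 vs SDS abundance) is given: HeLa Kyoto cells arrested at G1/S by double thymidine block, proteins quantified by TMT10plex mass spectrometry in mild NP-40 versus SDS extracts, three biological replicates.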
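Wherever thermal stability score vs G1/S (z-score of summed log2 fold changes over temperatures) is given: synchronized HeLa Kyoto cells, proteins quantified by TMT10plex mass spectrometry, three biological replicates, mitosis taken 0.5 h after nocodazole release, G1/S directly after double thymidine block.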

For “MRPPACWWLLAPPALLALLTCSLAFGLASEDTKKEVKQSQDLEKSGISRKNDIDLKGIVFVIQSQSNSFHAKRAEQLKKSILKQAADLTQELPSVLLLHQLAKQEGAWTILPLLPHFSVTYSRNSSWIFFCEEETRIQIPKLLETLRRYDPSKEWFLGKALHDEEATIIHHYAFSENPTVFKYPDFAAGWALSIPLVNKLTKRLKSESLKSDFTIDLKHEIALYIWDKGGGPPLTPVPEFCTNDVDFYCATTFHSFLPLCRKPVKKKDIFVAVKTCKKFHGDRIPIVKQTWESQASLIEYYSDYTENSIPTVDLGIPNTDRGHCGKTFAILERFLNRSQDKTAWLVIVDDDTLISISRLQHLLSCYDSGEPVFLGERYGYGLGTGGYSYITGGGGMVFSREAVRRLLASKCRCYSNDAPDDMVLGMCFSGLGIPVTHSPLFHQARPVDYPKDYLSHQVPISFHKHWNIDPVKVYFTWLAPSDEDKARQETQKGFREEL [B3GLCT]”, the “solubility in G1/S (log2)” value [1] was 0.0765, the “solubility change mitosis (log2)” value [2] was -0.0692 and the thermal stability score [3, 4] was 1.99. It also gave a thermal stability score ([3]; cell cycle stage: mitosis) of 2.59.
For “MSAKDERAREILRGFKLNWMNLRDAETGKILWQGTEDLSVPGVEHEARVPKKILKCKAVSRELNFSSTEQMEKFRLEQKVYFKGQCLEEWFFEFGFVIPNSTNTWQSLIEAAPESQMMPASVLTGNVIIETKFFDDDLLVSTSRVRLFYV [PDE6D]”, the “solubility in G1/S (log2)” value [1] was 0.207, the “solubility change mitosis (log2)” value [2] was -0.258 and the thermal stability score [3, 4] was 0.113. It also gave a thermal stability score ([3]; cell cycle stage: mitosis) of -0.864.
“MSGDTCLCPASGAKPKLSGFKGGGLGNKYVQLNVGGSLYYTTVRALTRHDTMLKAMFSGRMEVLTDKEGWILIDRCGKHFGTILNYLRDDTITLPQNRQEIKELMAEAKYYLIQGLVNMCQSALQDKKDSYQPVCNIPIITSLKEEERLIESSTKPVVKLLYNRSNNKYSYTSNSDDHLLKNIELFDKLSLRFNGRVLFIKDVIGDEICCWSFYGQGRKLAEVCCTSIVYATEKKQTKVEFPEARIYEETLNVLLYETPRVPDNSLLEATSRSRSQASPSEDEETFELRDRVRRIHVKRYSTYDDRQLGHQSTHRD [TNFAIP1]” was tested, and the “solubility in G1/S (log2)” value [1] was -1.22, the “solubility change mitosis (log2)” value [2] was 0.627 and the thermal stability score [3, 4] was 1.18e-17. For the same sequence, the thermal stability score ([3]; cell cycle stage: mitosis) was -0.17.
For “MSQVMSSPLLAGGHAVSLAPCDEPRRTLHPAPSPSLPPQCSYYTTEGWGAQALMAPVPCMGPPGRLQQAPQVEAKATCFLPSPGEKALGTPEDLDSYIDFSLESLNQMILELDPTFQLLPPGTGGSQAELAQSTMSMRKKEESEALDIKYIEVTSARSRCHDGPQHCSSPSVTPPFGSLRSGGLLLSRDVPRETRSSSESLIFSGNQGRGHQRPLPPSEGLSPRPPNSPSISIPCMGSKASSPHGLGSPLVASPRLEKRLGGLAPQRGSRISVLSASPVSDVSYMFGSSQSLLHSSNSSHQSSSRSLESPANSSSSLHSLGSVSLCTRPSDFQAPRNPTLTMGQPRTPHSPPLAKEHASSCPPSITNSMVDIPIVLINGCPEPGSSPPQRTPGHQNSVQPGAASPSNPCPATRSNSQTLSDAPFTTCPEGPARDMQPTMKFVMDTSKYWFKPNITREQAIELLRKEEPGAFVIRDSSSYRGSFGLALKVQEVPASAQSRPGEDSNDLIRHFLIESSAKGVHLKGADEEPYFGSLSAFVCQHSIMALALPCKLTIPQRELGGADGASDSTDSPASCQKKSAGCHTLYLSSVSVETLTGALAVQKAISTTFERDILPTPTVVHFKVTEQGITLTDVQRKVFFRRHYPLTTLRFCGMDPEQRKWQKYCKPSWIFGFVAKSQTEPQENVCHLFAEYDMVQPASQVIGLVTALLQDAERM [TNS4]”, the “solubility in G1/S (log2)” value [1] was 0.00637, the “solubility change mitosis (log2)” value [2] was -0.0286 and the thermal stability score [3, 4] was -0.0391. For the same sequence, the thermal stability score ([3]; cell cycle stage: mitosis) was 2.56.
“MSSCVSSQPSSNRAAPQDELGGRGSSSSESQKPCEALRGLSSLSIHLGMESFIVVTECEPGCAVDLGLARDRPLEADGQEVPLDTSGSQARPHLSGRKLSLQERSQGGLAAGGSLDMNGRCICPSLPYSPVSSPQSSPRLPRRPTVESHHVSITGMQDCVQLNQYTLKDEIGKGSYGVVKLAYNENDNTYYAMKVLSKKKLIRQAGFPRRPPPRGTRPAPGGCIQPRGPIEQVYQEIAILKKLDHPNVVKLVEVLDDPNEDHLYMVFELVNQGPVMEVPTLKPLSEDQARFYFQDLIKGIEYLHYQKIIHRDIKPSNLLVGEDGHIKIADFGVSNEFKGSDALLSNTVGTPAFMAPESLSETRKIFSGKALDVWAMGVTLYCFVFGQCPFMDERIMCLHSKIKSQALEFPDQPDIAEDLKDLITRMLDKNPESRIVVPEIKLHPWVTRHGAEPLPSEDENCTLVEVTEEEVENSVKHIPSLATVILVKTMIRKRSFGNPFEGSRREERSLSAPGNLLTKKPTRECESLSELKEARQRRQPPGHRPAPRGGGGSALVRGSPCVESCWAPAPGSPARMHPLRPEEAMEPE [CAMKK2]” was tested, and the “solubility in G1/S (log2)” value [1] was 0.289, the “solubility change mitosis (log2)” value [2] was -0.0691 and the thermal stability score [3, 4] was -0.348. The thermal stability score ([3]; cell cycle stage: mitosis) was -0.0506.
